# Reference: patent US20210071139A1
# Molecular target: TOX (UniProt Q66JW3)
# Assay: anti-TOX IP from EL4 cells, mass spectrometry, MiST analysis
# TOX, sequence (Q66JW3 whole entry): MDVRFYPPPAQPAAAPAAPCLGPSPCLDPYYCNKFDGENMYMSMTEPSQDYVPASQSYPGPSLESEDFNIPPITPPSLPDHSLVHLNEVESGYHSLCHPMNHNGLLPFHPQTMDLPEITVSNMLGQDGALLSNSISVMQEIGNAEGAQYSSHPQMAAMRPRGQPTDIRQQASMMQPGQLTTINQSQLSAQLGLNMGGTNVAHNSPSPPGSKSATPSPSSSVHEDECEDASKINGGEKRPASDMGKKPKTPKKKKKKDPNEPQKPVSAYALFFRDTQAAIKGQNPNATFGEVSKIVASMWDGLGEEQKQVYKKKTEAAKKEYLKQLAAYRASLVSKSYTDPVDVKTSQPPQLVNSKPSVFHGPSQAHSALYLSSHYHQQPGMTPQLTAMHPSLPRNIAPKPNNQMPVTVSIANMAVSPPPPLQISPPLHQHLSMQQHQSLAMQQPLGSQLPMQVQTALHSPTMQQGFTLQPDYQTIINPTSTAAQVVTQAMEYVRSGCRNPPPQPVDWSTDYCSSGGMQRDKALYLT
Substance,Abundance,MiST Score,Reproducibility,Specificity
Pds5a (from UniProt Q6A026 1-1332),1.76e-06,0.824,0.865,0.813
Sfxn1 (from UniProt Q99JR1 2-322),3.71e-05,0.827,0.954,0.777
Lrrfip1 (from UniProt Q3UZ39 2-729),8.42e-06,0.817,0.996,0.743
Ssb (from UniProt P32067 1-415),3.74e-05,0.809,0.807,0.817
Rftn1 (from UniProt Q6A0D4 2-554),4.96e-06,0.8,0.37,1
Tpx2 (from UniProt A2APB8 1-745),1.91e-05,0.805,0.992,0.727
Zc3h11a (from UniProt Q6NZF1 1-792),1.22e-05,0.801,0.957,0.737
Ptpn11 (from UniProt P35235 2-593) (enzyme),4.22e-05,0.808,0.396,1
Rars (from UniProt Q9D0I9 1-660) (enzyme),4.81e-06,0.797,0.98,0.721
Parp2 (from UniProt O88554 1-559) (enzyme),2.87e-06,0.827,0.46,1
Ap3d1 (from UniProt O54774 2-1199),1.02e-06,0.817,0.427,1
Wrnip1 (from UniProt Q91XU0 1-660),3.59e-06,0.812,0.41,1
Pds5b (from UniProt Q4VA53 1-1446),2.47e-06,0.807,0.845,0.797
Tbl1x (from UniProt Q9QXE7 2-527),5.34e-06,0.825,0.453,1
Lmnb1 (from UniProt P14733 2-585),1.67e-05,0.822,0.964,0.766
Tra2b (from UniProt P62996 2-288),3.65e-05,0.803,0.381,1
Rpa2 (from UniProt Q62193 1-270),0.000292,0.814,0.977,0.747
Isy1 (from UniProt Q69ZQ2 1-285),3.22e-05,0.811,0.856,0.797
Ythdf1 (from UniProt P59326 2-559),3.5e-05,0.811,0.833,0.809
Tfip11 (from UniProt Q9ERA6 1-838),5.43e-06,0.826,0.972,0.767
Ckap5 (from UniProt A2AGT5 1-2032),1.02e-06,0.81,0.924,0.765
Nup98 (from UniProt Q6PFD9 1-880),5.87e-07,0.803,0.381,1
Tdrd3 (from UniProt Q91W18 1-743),8.62e-06,0.815,0.627,0.907
Ddx18 (from UniProt Q8K363 1-660) (enzyme),4.72e-05,0.822,0.986,0.756
Aars (from UniProt Q8BGQ7 1-968) (enzyme),4.49e-06,0.827,0.459,1
